Patent US6514734
One block for each substance: values may come before it.

What was measured:
[1] = system: hirudin polymer (photoreactive polyacrylamide containing hirudin ligands)
[2] = molecular target: biotin derivatized horseradish peroxidase (horseradish) (UniProt P00433); assay: glass rods with adsorbed (nonilluminated) streptavidin polymer, biotin-HRP at 9 µg/ml 1 h, washed, TMB peroxidase substrate; average of 3
[3] = molecular target: biotin derivatized horseradish peroxidase (horseradish) (UniProt P00433); assay: glass rods with photoimmobilized streptavidin polymer, biotin-HRP at 9 µg/ml 1 h, washed, TMB peroxidase substrate; average of 3
[4] = molecular target: biotin derivatized horseradish peroxidase (horseradish) (UniProt P00433); assay: biotin-HRP bound to glass rods, adsorbed against photoimmobilized streptavidin polymer
[5] = molecular target: glucose oxidase; assay: polyester discs with IgG polymer, not illuminated, washed; glucose oxidase at 0.1 mg/ml 1 h, washed; bound glucose oxidase read with glucose/HRP/TMB; n=5, SEM 0.021
[6] = molecular target: glucose oxidase; assay: glucose oxidase capture on discs with IgG polymer, illuminated against nonilluminated
[7] = molecular target: glucose oxidase; assay: polyester discs with IgG polymer, illuminated, washed; glucose oxidase at 0.1 mg/ml 1 h, washed; bound glucose oxidase read with glucose/HRP/TMB; n=5, SEM 0.059
[8] = molecular target: bovine thrombin (bovine) (UniProt P00735); assay: cell-based or functional assay
[9] = molecular target: tritium labeled human thrombin (human) (UniProt P00734); assay: 3H-thrombin binding, PE coated with 25 µg/cm^2 hirudin polymer against uncoated PE
[10] = molecular target: tritium labeled human thrombin (human) (UniProt P00734); assay: 3H-thrombin at 2 µg/ml, 1 h, on SR coated with photoimmobilized hirudin polymer (1.0 µg/cm^2 added); scintillation counting
[11] = molecular target: tritium labeled human thrombin (human) (UniProt P00734); assay: 3H-thrombin at 2 µg/ml, 1 h, on PU coated with photoimmobilized hirudin polymer (1.0 µg/cm^2 added); scintillation counting
[12] = molecular target: tritium labeled human thrombin (human) (UniProt P00734); assay: 3H-thrombin at 2 µg/ml, 1 h, on PU coated with photoimmobilized hirudin polymer (25 µg/cm^2 added); scintillation counting
[13] = molecular target: tritium labeled human thrombin (human) (UniProt P00734); assay: 3H-thrombin binding, PU coated with 25 µg/cm^2 hirudin polymer against uncoated PU
[14] = molecular target: tritium labeled human thrombin (human) (UniProt P00734); assay: 3H-thrombin at 2 µg/ml, 1 h, on PU coated with photoimmobilized hirudin polymer (5.0 µg/cm^2 added); scintillation counting
[15] = molecular target: tritium labeled human thrombin (human) (UniProt P00734); assay: 3H-thrombin at 2 µg/ml, 1 h, on SR coated with photoimmobilized hirudin polymer (5.0 µg/cm^2 added); scintillation counting
[16] = molecular target: tritium labeled human thrombin (human) (UniProt P00734); assay: 3H-thrombin at 2 µg/ml, 1 h, on PE coated with photoimmobilized hirudin polymer (25 µg/cm^2 added); scintillation counting
[17] = molecular target: tritium labeled human thrombin (human) (UniProt P00734); assay: 3H-thrombin at 2 µg/ml, 1 h, on PE coated with photoimmobilized hirudin polymer (5.0 µg/cm^2 added); scintillation counting
[18] = molecular target: tritium labeled human thrombin (human) (UniProt P00734); assay: 3H-thrombin at 2 µg/ml, 1 h, on PE coated with photoimmobilized hirudin polymer (1.0 µg/cm^2 added); scintillation counting

Sequence of biotin derivatized horseradish peroxidase (horseradish) (P00433 31-338): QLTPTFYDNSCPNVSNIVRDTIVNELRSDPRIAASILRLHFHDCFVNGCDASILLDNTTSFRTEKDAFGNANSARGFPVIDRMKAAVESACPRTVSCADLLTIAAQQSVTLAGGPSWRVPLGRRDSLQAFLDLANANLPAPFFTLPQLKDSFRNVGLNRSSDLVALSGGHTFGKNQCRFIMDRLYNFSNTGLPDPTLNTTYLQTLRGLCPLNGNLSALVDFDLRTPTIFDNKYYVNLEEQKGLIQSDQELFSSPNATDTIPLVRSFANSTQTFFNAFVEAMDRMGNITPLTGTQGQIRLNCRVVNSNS

Substance: bovine thrombin
decrease in antithrombin activity after incorporation of hirudin into the polymer [1]: only a 13% decrease in its activity

Substance: streptavidin polymer (photoreactive polyacrylamide containing streptavidin ligands) (from UniProt P22629 37-163)
Absorbance of Biotin-HRP [2]: 0.285 absorbance
Absorbance of Biotin-HRP [3]: 1 absorbance
fold less peroxidase activity than covalent streptavidin polymer [4]: 3.5 fold

Substance: hirudin polymer (photoreactive polyacrylamide containing hirudin ligands)
fold greater thrombin binding than uncoated biomaterial [9]: 200 fold
Bound thrombin [10]: 0.004 µg/cm^2
Bound thrombin [11]: 0.028 µg/cm^2
Bound thrombin [12]: 0.28 µg/cm^2
specific activity (antithrombin units per mg of hirudin); remaining thrombin activity on chromogenic substrate Chromozym TH [8]: 10200 ATU/mg
fold greater thrombin binding than uncoated biomaterial [13]: 23 fold
Bound thrombin [14]: 0.137 µg/cm^2
Bound thrombin [15]: 0.047 µg/cm^2
Bound thrombin [16]: 0.2 µg/cm^2
Bound thrombin [17]: 0.014 µg/cm^2
Bound thrombin [18]: 0.02 µg/cm^2

Results, then the substance that gave them:

IgG Activity (A655) [5]: 0.669 A655
percent greater activity, illuminated against nonilluminated [6]: 61%
IgG Activity (A655) [7]: 1.08 A655
Substance: IgG polymer (photoreactive polyacrylamide containing tritiated rabbit anti-glucose oxidase IgG ligands) (antibody)

specific activity (antithrombin units per mg of hirudin); remaining thrombin activity on chromogenic substrate Chromozym TH [8]: 11700 ATU/mg
Substance: recombinant hirudin
